Assay results published in patent US20230408517A1 (BIO TECHNE, published 2023).
Read-outs that look alike come from different tables or passages of the source.

Assays:
[1] = target: T1, recombinant SARS-CoV-2 spike S1 RBD (R319-F541), C-terminal 6-His (SARS-CoV-2, UniProt P0DTC2 319-541); test: sandwich dipstick, detector Ab4-AuNP
[2] = target: T2, UK variant RBD (R319-F541 with N501Y), C-terminal 6-His (SARS-CoV-2, UniProt P0DTC2 319-541); test: sandwich dipstick, detector Ab4-AuNP
[3] = target: T3, SA variant RBD (R319-F541 with K417N, E484K, N501Y), C-terminal 6-His (SARS-CoV-2, UniProt P0DTC2 319-541); test: sandwich dipstick, detector Ab4-AuNP
[4] = target: T4, BR P.1 variant RBD (R319-F541 with K417T, E484K, N501Y), C-terminal 6-His (SARS-CoV-2, UniProt P0DTC2 319-541); test: sandwich dipstick, detector Ab4-AuNP
[5] = target: T1, recombinant SARS-CoV-2 spike S1 RBD …; test: lateral flow NC50, RBD-AuNP vs immobilised ACE2
[6] = target: T2, UK variant RBD (R319-F541 with N501Y), …; test: lateral flow NC50, RBD-AuNP vs immobilised ACE2
[7] = target: T3, SA variant RBD (R319-F541 with K417N, …); test: lateral flow NC50, RBD-AuNP vs immobilised ACE2
[8] = target: T4, BR P.1 variant RBD (R319-F541 with …); test: lateral flow NC50, RBD-AuNP vs immobilised ACE2
[9] = target: T1, recombinant SARS-CoV-2 spike S1 RBD …; test: lateral flow NC50, RBD-AuNP vs immobilised ACE2; remark: listed apart in the source
[10] = target: T2, UK variant RBD (R319-F541 with N501Y), …; test: lateral flow NC50, RBD-AuNP vs immobilised ACE2; remark: listed apart in the source
[11] = target: T3, SA variant RBD (R319-F541 with K417N, …); test: lateral flow NC50, RBD-AuNP vs immobilised ACE2; remark: listed apart in the source
[12] = target: T4, BR P.1 variant RBD (R319-F541 with …); test: lateral flow NC50, RBD-AuNP vs immobilised ACE2; remark: listed apart in the source
[13] = target: BR P.2 variant RBD (R319-F541 with E484K) (SARS-CoV-2, UniProt P0DTC2 319-541); test: lateral flow NC50, RBD-AuNP vs immobilised ACE2
[14] = target: K417E RBD (R319-F541 with K417E) (SARS-CoV-2, UniProt P0DTC2 319-541); test: lateral flow NC50, RBD-AuNP vs immobilised ACE2
[15] = target: L452R RBD (R319-F541 with L452R) (SARS-CoV-2, UniProt P0DTC2 319-541); test: lateral flow NC50, RBD-AuNP vs immobilised ACE2
[16] = target: IN v1 variant RBD (R319-F541 with L452R, E484Q) (SARS-CoV-2, UniProt P0DTC2 319-541); test: lateral flow NC50, RBD-AuNP vs immobilised ACE2
[17] = target: T5, IN v2 variant RBD (R319-F541 with L452R, T478K) (SARS-CoV-2, UniProt P0DTC2 319-541); test: lateral flow NC50, RBD-AuNP vs immobilised ACE2
[18] = target: T478K RBD (R319-F541 with T478K) (SARS-CoV-2, UniProt P0DTC2 319-541); test: lateral flow NC50, RBD-AuNP vs immobilised ACE2
[19] = target: T1, recombinant SARS-CoV-2 spike S1 RBD …; test: flow cytometry, blocking of binding to hACE-2 cells
[20] = target: T1, recombinant SARS-CoV-2 spike S1 RBD …; test: as above; remark: listed apart in the source
[21] = target: T4, BR P.1 variant RBD (R319-F541 with …); test: as above
[22] = target: T5, IN v2 variant RBD (R319-F541 with …); test: as above
[23] = target: rSARS2 RBD aa319-541, N439K, C-His (SARS-CoV-2, UniProt P0DTC2 319-541); test: as above
[24] = target: rSARS2-B.1.1.7 S aa16-1211 2x aa mut., C-His (SARS-CoV-2, UniProt P0DTC2 16-1211); test: as above
[25] = target: rSARS2-B.1.1.7 S aa16-1211 4x aa mut., C-His (SARS-CoV-2, UniProt P0DTC2 16-1211); test: as above
[26] = target: rSARS2-B.1.617.2 S aa16-1211 10+4x aa mut., C-His (SARS-CoV-2, UniProt P0DTC2 16-1211); test: as above
[27] = target: T1, recombinant SARS-CoV-2 spike S1 RBD …; test: sandwich dipstick, detector Ab5-AuNP
[28] = target: T2, UK variant RBD (R319-F541 with N501Y), …; test: sandwich dipstick, detector Ab5-AuNP
[29] = target: T3, SA variant RBD (R319-F541 with K417N, …); test: sandwich dipstick, detector Ab5-AuNP
[30] = target: T4, BR P.1 variant RBD (R319-F541 with …); test: sandwich dipstick, detector Ab5-AuNP

B1: 1035740 (antibody, V domains shown)
VH: EVLLQQSGPELVKPGASVKIPCKASGYTFTDYNMDWVKQSHGKSLEWIGDINPNNGFTIYNQKFKGKATLTVDKSSSTAYMELRSLTSEDTAVYYCAREGYGNYFDYWGQGTTLTVSS
VL: DVLLTQSPAILSVSPGERVSFSCRASQSIGTSLHWYQQRTNGSPRLLIKYVSESISGIPSRFSGSGSGTDFTLSINSVESEDIADYYCQQSSSWPTTFGAGTKLELK
[1]
  detection sensitivity: 0.01 µg/mL
[2]
  detection sensitivity: 0.01 µg/mL
[3]
  detection sensitivity: 0.01 µg/mL
[4]
  detection sensitivity: 0.01 µg/mL
[5]
  IC50: 1.43 µg/mL
[6]
  IC50: 1.35 µg/mL
[7]
  IC50: 1.83 µg/mL
[8]
  IC50: 1.4 µg/mL
[9]
  IC50: 1.43 µg/mL
[10]
  IC50: 1.35 µg/mL
[11]
  IC50: 1.83 µg/mL
[12]
  IC50: 1.4 µg/mL
[13]
  IC50: 1.48 µg/mL
[14]
  IC50: 1.09 µg/mL
[15]
  IC50: 1.17 µg/mL
[16]
  IC50: 1.79 µg/mL
[17]
  IC50: 1.61 µg/mL
[18]
  IC50: 1.21 µg/mL
[19]
  percent blocking: 94.6%
[20]
  percent blocking: 94.6%
[21]
  percent blocking: 95%
[22]
  percent blocking: 96.5%
[23]
  percent blocking: 96%
[24]
  percent blocking: 94.3%
[25]
  percent blocking: 82.1%
[26]
  percent blocking: 89.6%

B2: 1035709 (antibody, V domains shown)
VH: EVQLQQSGPELVKPGASVKISCKTSGYTFTEYTMHWVKQSHGKSLEWIGGINPNIVDTGYNQKFKGKATLTVDKSSSTAYMELRSLTSEDSAVYYCARDGYPLYYAMDYWGQGTSVTVSS
VL: DIQMTQSPSSLSASLGERVSLTCRASQEISGYLSWLQQKPDGTIKRLIYAASTLDSGVPKRFSGSRSGSDYSLTISSLESEDFADYYCLQYASYPWTFGGGTKLEIK
[27]
  detection sensitivity: 0.001 µg/mL
[28]
  detection sensitivity: 0.001 µg/mL
[29]
  detection sensitivity: 0.001 µg/mL
[30]
  detection sensitivity: 0.001 µg/mL
[5]
  IC50: 0.63 µg/mL
[6]
  IC50: 1.08 µg/mL
[7]
  IC50: 0.91 µg/mL
[8]
  IC50: 0.7 µg/mL
[9]
  IC50: 0.63 µg/mL
[10]
  IC50: 1.08 µg/mL
[11]
  IC50: 0.91 µg/mL
[12]
  IC50: 0.7 µg/mL
[13]
  IC50: 0.61 µg/mL
[14]
  IC50: 0.38 µg/mL
[15]
  IC50: 0.92 µg/mL
[16]
  IC50: 0.66 µg/mL
[17]
  IC50: 2.33 µg/mL
[18]
  IC50: 1.35 µg/mL
[19]
  percent blocking: 94.7%
[20]
  percent blocking: 94.7%
[21]
  percent blocking: 90%
[22]
  percent blocking: 5.3%
[23]
  percent blocking: 90.8%
[24]
  percent blocking: 92.1%
[25]
  percent blocking: 80.7%
[26]
  percent blocking: 58.8%

B3: 1035762 (antibody, V domains shown)
VH: EVQLQQSGPELVKPGASVKISCKTSGYTFTEYTMHWVKQSHGKSLEWIGGINPNNGDTGYNQKFKGKATLTVDKSSSTAYMELRSLTFEDSAVYYCARDGYPLYYAMDYWGQGTSVTVSS
VL: DIQMTQSPSSLSASLGERVSLTCRASQEISGYLCWLQQKPDGTIKRLIYAASTLDSAVPKRFSGSRSGSDYSLTISSLESEDFADFYCLQYASYPWTFGGGTKLEIK
[27]
  detection sensitivity: 0.001 µg/mL
[28]
  detection sensitivity: 0.001 µg/mL
[29]
  detection sensitivity: 0.001 µg/mL
[30]
  detection sensitivity: 0.001 µg/mL
[5]
  IC50: 0.69 µg/mL
[6]
  IC50: 0.95 µg/mL
[7]
  IC50: 0.7 µg/mL
[8]
  IC50: 0.69 µg/mL
[9]
  IC50: 0.69 µg/mL
[10]
  IC50: 0.95 µg/mL
[11]
  IC50: 0.7 µg/mL
[12]
  IC50: 0.69 µg/mL
[13]
  IC50: 0.85 µg/mL
[14]
  IC50: 0.49 µg/mL
[15]
  IC50: 0.73 µg/mL
[16]
  IC50: 0.77 µg/mL
[17]
  IC50: 2.57 µg/mL
[18]
  IC50: 3.77 µg/mL
[19]
  percent blocking: 94.1%
[20]
  percent blocking: 94.1%
[21]
  percent blocking: 40.5%
[22]
  percent blocking: 1.5%
[23]
  percent blocking: 42.7%
[24]
  percent blocking: 75.7%
[25]
  percent blocking: 75.2%
[26]
  percent blocking: 18.7%
